Assay [1] addresses human vascular endothelial growth factor A, isoform VEGFA165 (human) (UniProt P15692). Kind of assay: ELISA; competition with NRP1, no heparin. Background: An ELISA detects its analyte on a solid surface through an enzyme-linked reagent.
For assay [2] the target is unchanged. Briefly: ELISA; competition with VEGFR1, no heparin.
For assay [3], the target named is human vascular endothelial growth factor A, isoform VEGFA165 (Homo sapiens). Briefly: ELISA; competition with biotinylated NRP1, no heparin. The following applies: Fc fusion.
Assay [4] has the same target. Briefly: ELISA; competition with biotinylated VEGFR1, no heparin. As to conditions: Fc fusion.

human vascular endothelial growth factor A, isoform VEGFA165 (human), sequence (P15692 other isoform, or with tags, fused parts or gaps): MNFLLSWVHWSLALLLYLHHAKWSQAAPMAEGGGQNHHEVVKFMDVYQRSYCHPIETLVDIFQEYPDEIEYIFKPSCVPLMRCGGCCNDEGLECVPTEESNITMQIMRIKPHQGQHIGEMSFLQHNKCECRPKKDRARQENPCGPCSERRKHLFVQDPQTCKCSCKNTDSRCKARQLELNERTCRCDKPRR
human vascular endothelial growth factor A, isoform VEGFA165 (Homo sapiens), sequence (P15692 other isoform, or with tags, fused parts or gaps): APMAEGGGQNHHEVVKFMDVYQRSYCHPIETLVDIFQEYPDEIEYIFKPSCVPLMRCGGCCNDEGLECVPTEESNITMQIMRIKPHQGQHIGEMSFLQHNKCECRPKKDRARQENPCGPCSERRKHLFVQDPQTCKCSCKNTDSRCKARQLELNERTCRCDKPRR
VEGFR1 domains 1 to 6 fused to a C-terminal Fc, biotinylated, sequence (P17948 27-654): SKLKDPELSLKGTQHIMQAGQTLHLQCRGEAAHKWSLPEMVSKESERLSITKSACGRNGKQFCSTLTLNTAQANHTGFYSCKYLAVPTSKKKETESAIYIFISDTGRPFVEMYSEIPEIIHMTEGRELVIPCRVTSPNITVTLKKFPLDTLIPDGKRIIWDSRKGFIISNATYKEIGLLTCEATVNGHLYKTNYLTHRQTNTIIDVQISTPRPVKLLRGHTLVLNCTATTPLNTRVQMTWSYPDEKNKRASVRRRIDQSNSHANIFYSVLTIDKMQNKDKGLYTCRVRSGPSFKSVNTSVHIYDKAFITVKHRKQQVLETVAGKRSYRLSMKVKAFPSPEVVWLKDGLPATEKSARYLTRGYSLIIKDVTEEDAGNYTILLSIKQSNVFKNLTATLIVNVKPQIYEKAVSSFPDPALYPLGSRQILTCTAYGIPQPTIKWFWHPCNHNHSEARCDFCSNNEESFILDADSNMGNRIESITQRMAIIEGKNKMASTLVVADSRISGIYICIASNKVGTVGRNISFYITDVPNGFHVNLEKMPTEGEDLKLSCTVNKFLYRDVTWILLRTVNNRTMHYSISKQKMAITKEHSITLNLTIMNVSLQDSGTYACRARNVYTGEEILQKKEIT

Broadly, the IC50 is the concentration that gives 50% inhibition. Higher therefore signals a need for much substance. Consider G6-31, for which the values for the IC50 in assay [1] and in assay [2] were 1.9 nM and 58.2 nM, respectively.

Turning to “NRP1 receptor domains α1α2β1β2 fused to a C-terminal Fc, biotinylated (from UniProt O14786 22-583)”, the IC50 in assay [3] was found to be 52.8 nM. For the substance “VEGFR1 domains 1 to 6 fused to a C-terminal Fc, biotinylated (from UniProt P17948 27-654)”, in assay [4], the IC50 was determined as 16.3 nM.

The values above are taken from article PMC13208732.
